Assay results from US20150098945A1 (Daiichi Sankyo, published 2015).

T1: N-terminal FLAG-tagged cynomolgus monkey ROBO4, cynoROBO4-2 (pCI-FLAG-cynoROBO4-2) (cynomolgus monkey, UniProt Q8WZ75 28-1007 (human entry))
T1 chain: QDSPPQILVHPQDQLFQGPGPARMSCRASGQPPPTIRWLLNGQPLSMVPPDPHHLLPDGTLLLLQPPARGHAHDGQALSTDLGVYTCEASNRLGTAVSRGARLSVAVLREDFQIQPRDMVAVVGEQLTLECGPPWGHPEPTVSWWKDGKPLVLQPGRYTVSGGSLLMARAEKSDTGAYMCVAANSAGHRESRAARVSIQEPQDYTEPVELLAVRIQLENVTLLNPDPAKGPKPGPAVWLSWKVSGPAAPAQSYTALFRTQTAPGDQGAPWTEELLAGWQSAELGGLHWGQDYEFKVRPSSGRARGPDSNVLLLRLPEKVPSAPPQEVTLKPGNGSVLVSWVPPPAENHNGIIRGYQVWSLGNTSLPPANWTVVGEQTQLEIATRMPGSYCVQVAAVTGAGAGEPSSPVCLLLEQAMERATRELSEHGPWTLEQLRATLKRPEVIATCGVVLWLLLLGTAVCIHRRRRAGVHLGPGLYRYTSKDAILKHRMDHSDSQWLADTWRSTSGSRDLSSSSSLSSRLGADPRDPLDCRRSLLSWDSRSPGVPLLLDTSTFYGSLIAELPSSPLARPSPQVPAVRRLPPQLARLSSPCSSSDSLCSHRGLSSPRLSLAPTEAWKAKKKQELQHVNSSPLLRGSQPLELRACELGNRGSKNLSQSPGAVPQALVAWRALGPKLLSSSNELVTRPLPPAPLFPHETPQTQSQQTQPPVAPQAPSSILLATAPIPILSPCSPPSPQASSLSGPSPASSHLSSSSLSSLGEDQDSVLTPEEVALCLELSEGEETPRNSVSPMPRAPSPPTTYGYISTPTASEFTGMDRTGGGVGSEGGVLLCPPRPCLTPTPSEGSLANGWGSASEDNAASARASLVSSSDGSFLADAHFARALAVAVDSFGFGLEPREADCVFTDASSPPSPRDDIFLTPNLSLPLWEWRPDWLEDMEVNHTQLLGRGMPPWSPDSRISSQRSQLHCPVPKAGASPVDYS

T2: mouse ROBO4 (pCI-mROBO4-transfected HEK293 cells) (mouse, UniProt Q8C310 28-1012)
T2 sequence: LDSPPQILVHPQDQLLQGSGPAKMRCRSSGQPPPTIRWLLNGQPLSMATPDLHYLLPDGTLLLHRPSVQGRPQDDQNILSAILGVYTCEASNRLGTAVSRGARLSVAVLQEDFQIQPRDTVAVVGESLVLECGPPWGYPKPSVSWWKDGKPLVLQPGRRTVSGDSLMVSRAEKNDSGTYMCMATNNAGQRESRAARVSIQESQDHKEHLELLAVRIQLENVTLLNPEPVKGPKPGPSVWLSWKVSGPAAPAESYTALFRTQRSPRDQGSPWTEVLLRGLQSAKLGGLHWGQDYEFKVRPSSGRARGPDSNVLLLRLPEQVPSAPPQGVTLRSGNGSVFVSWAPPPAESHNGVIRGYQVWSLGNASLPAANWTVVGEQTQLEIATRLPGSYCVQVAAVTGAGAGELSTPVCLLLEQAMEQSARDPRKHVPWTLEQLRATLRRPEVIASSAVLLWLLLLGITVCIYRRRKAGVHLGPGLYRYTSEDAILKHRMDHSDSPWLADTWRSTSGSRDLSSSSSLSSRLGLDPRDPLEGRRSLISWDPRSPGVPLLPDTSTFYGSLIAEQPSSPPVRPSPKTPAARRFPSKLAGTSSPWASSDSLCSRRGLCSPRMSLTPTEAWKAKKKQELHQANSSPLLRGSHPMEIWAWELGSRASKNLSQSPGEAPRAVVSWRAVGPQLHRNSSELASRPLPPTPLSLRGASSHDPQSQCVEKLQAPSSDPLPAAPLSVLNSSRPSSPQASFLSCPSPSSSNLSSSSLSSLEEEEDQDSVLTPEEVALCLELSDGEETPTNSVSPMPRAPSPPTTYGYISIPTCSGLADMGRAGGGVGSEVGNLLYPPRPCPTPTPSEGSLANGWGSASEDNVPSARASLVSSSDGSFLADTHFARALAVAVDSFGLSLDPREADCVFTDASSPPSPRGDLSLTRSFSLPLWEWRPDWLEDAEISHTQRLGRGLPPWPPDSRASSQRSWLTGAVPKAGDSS


Legend:
[1] = biological target: T1, N-terminal FLAG-tagged cynomolgus …; assay: flow cytometry, HEK293 cells transfected with pCI-FLAG-cynoROBO4-2, antibody at 10 µg/mL, anti-mouse IgG FITC; control histogram IgG (Mouse IgG2a)
Method: HEK293 cells were inoculated at a concentration of 1.5×10⁶ cells/dish to a 60-mm dish (manufactured by Corning Inc.) and cultured overnight in a DMEM medium containing 10% FBS at 37° C. under 5% CO₂ conditions. On the next day, the HEK293 cells were transfected with pCI-hROBO4, pCI-mROBO4, pCI-raROBO4, pCI-FLAG-cynoROBO4-1, pCI-FLAG-cynoROBO4-2, pCI-hROBO1, pCI-hROBO2, or pCI-hROBO3 using FuGENE6 Transfection Reagent and further cultured overnight at 37° C. under 5% CO₂ conditions. On the next day, the expression vector-transfected cells were treated with TrypLE Express (manufactured by Life Technologies Corp.), washed with PBS containing 5% FBS, and then suspended in PBS containing 5% FBS. The obtained cell suspension was used in flow cytometry analysis.
Each cell suspension prepared in 4)-3-1 was centrifuged, and the supernatant was removed. Then, MAb1 or a negative control Mouse IgG2a was added at a concentration of 10 μg/mL to 2×10⁵ expression vector-transfected cells, and the resulting suspension was left standing at 4° C. for 1 hour. […] Data was analyzed using Flowjo. The histogram of FITC fluorescence intensity was prepared. The antibody was determined to bind in a cross-species manner when the histogram of MAb1 was shifted to a stronger fluorescence intensity region compared with the histogram of the negative control Mouse IgG2a.

[2] = biological target: T2, mouse ROBO4 (pCI-mROBO4-transfected …); assay: flow cytometry (FC500), HEK293 cells transfected with pCI-mROBO4, FITC goat anti-human IgG Fc; control histogram IgG (human IgG)

| binding result [1] | binding result [2] | Binder |
| --- | --- | --- |
| binds | – | anti-ROBO4 mouse monoclonal antibody MAb1 (antibody, mouse IgG1, V domains shown, Mouse IgG1 (gamma1), kappa light chain, purified from hybridoma supernatant; also called parent antibody MAb1) VH: EVQLVESGGGLVKPGGSLKLSCAASGFTFSTYAMSWVRQTPEKRLEWVATISNGGTYTYYPDSVKGRFTISRDNAENTLYLQMSSLRSEDTAMYFCARLIYYDYLDYWGHGTTLTVSS VL: DAVMTQTPLSLPVSLGDQASISCRSSQSLENSNGNTYLNWYFQKPGQSPQLLIYRVSNRFSGVLDRFSGSGSGTDFTLKISRVEAEDFGVYFCLQVTHVPWTFGGGTKLEIKR |
| – | no binding (tested: 10 µg/mL) | humanized MAb1 antibody H-2143 (antibody, human IgG2, kappa, V domains shown, Human IgG2 / kappa constant regions; also called hMAb1-H4-type heavy chain + hMAb1-L2-type light chain) VH: EVQLVESGGGLVQPGGSLRLSCAASGFTFSTYAMSWVRQAPGKRLEWVATISQGGTYTYYPDSVKGRFTISRDNAKNTLYLQMNSLRAEDTAVYYCARLIYYDYLDYWGQGTLVTVSS VL: DIVMTQSPLSLPVTLGEPASISCRSSQSLENENKNLYLNWYLQKPGQSPQLLIYRVSNRFSGVPDRFSGSGSGTDFTLKISRVEAEDVGVYYCLQVTHVPWTFGPGTKVDIKR |
